Laboratory results reported in patent US20250195685A1 (CAPSTAN THERAPEUTICS, published 2025).
Like-named read-outs stand apart in the source and are kept apart here.

B1: CBD1033 whole antibody, human IgG1 with Fc-silencing mutations L234A, L235A and P329A (CBD1033-hIgG1-LALAPA) (antibody, V domains shown)
VH: QVQLVQSGAEVKKPGASVKVSCKASRYTFTDYNLHWVRQAPGQGLEWMGFIYPYNGGTGYAQKFQGRVTMTVDTSTSTAYMELSSLRSEDTAVYYCARDHRYNEGVSFDYWGQGTTVTVSS
VL: DIQLTQSPSSLSASVGDRATITCRASESVDGFGNSFMNWYQQKPGKAPKLLIYLASNLESGVPSRFSGSGSGTDFTLTISSVQPEDFATYYCQQNNEDPYTFGQGTKLEIKR
notes: On tLNPs the antibody was SATA-modified or AJICAP-thiolated (CBD1033.29) and conjugated to the LNP; also called CBD1033.3; CBD1033 IgG1
B2: CBD1017ch whole antibody (chimeric CT8 antibody) (antibody, V domains shown)
VH: EVQLQQSGPELVKPGASVKISCKASRYTFTDYNLHWVKLSHEKSLEWIGFIYPYNGGTGYNQKFKNKAKLTVDYSSSTAYMELRSLTSVDAAVYYCARDHRYNEGVSFDYWGQGTTLTVSS
VL: NIVLTQSPASLAVSLGQRATISCRASESVDGFGNSFMNWYQQKPGQSPKLLIYLASNLESGVPARFSGSGSRTDFTLTIDPVEADDAATYYCQQNNEDPYTFGGGTKLEIK
notes: Chimeric antibody comprising the variable regions of the donor antibody CT8; detected with anti-human Fc

Tests used:
[1] = target: T1, human CD8αα homodimer, recombinant protein (Acro Biosystems) (human, UniProt P01732 22-182); test: BLI steady state analysis, whole antibody, sample kept at pH 7.2, 4C (unstressed)
T1 construct: also called CD8αα antigen; biotinylated CD8α recombinant protein (CDA-H82E3)
T1 sequence (P01732 22-182 limits assumed): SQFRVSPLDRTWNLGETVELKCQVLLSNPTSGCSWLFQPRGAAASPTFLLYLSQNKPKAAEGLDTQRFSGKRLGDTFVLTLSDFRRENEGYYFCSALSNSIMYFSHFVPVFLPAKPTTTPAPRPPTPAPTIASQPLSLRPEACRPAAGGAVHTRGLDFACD
Experimental: To assess affinity of whole antibodies, steady state analysis was used as the bivalent nature of both whole antibody and CD8α complicates kinetic analysis. 50 nM CD8α-His (that is, CD8α with a C-terminal oligohistidine tag; Acro) was immobilized on Ni-NTA sensor probes. Binding was analyzed with a three-fold antibody dilutions series: 60 nM, 20 nM, 6.67 nM, 2.22 nM, 0.74 nM, and 0.25 nM. The antigen-loaded sensors were incubated in the diluted solutions to capture the whole IgG antibody for 300 s to record the association phase. Sensors were incubated in the kinetic buffer for 900 s to record the dissociation phase. The spin speed was 1000 rpm for all steps except the antigen loading step which was 400 rpm to control density of the antigen. The temperature of the performed assays was at 30° C. during the association and dissociation phases. The sensor data were baseline subtracted and further analyzed in GatorOne software (version 2.10) to determine the equilibrium dissociation constants (KD) of the antibodies by fitting the signals of the steady states to the 1:1 binding model.

[2] = target: T2, human CD8 on cells (CD8-overexpressing HEK293T cells, SupT1, HPB-ALL, human T cells, transfected HEK293 of … (human, UniProt P01732 22-235)); test: flow cytometry on CD8-overexpressing HEK293T cells, non-linear fit of normalized gMFI
T2 construct: whole, on cells; also called cell surface CD8
T2 sequence (P01732 22-235): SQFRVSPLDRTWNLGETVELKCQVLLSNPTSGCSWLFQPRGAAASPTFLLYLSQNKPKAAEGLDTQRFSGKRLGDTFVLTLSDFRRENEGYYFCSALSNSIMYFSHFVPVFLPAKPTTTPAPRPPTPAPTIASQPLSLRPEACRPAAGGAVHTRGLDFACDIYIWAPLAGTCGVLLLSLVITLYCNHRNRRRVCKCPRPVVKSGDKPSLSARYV

[3] = target: T3, cynomolgus macaque CD8 on expanded primary T cells (cynomolgus macaque); test: flow cytometry, Cyno Expanded T cells Donor 10, gated on live CD8 T cells (via CD3+CD4-)
T3 construct: also called CD4- CD8+ cynomolgus macaque T cells
Experimental: (§1) To obtain the results shown in FIG. 8A and FIG. 8B, 5×10⁴ expanded primary T cells (human, cynomolgus macaque or rhesus monkey) were thawed and transferred to a V bottom 96-well culture plate (Corning). Cells were washed twice with Cell Staining buffer (#420201, Biolegend). Each anti-CD8α antibody was diluted in four-fold antibody titration series from 60 μg/mL to 0.057 ng/mL into Cell Staining buffer. Cells were stained with each diluted antibody solution for 30 minutes on ice. Cells were then washed three times with Cell Staining buffer and primary antibody binding was detected by staining with anti-human Fc BV421 conjugate antibody (#410704, Biolegend) at 1:200 dilution for 30 minutes on ice. […] Flow cytometry data was analyzed by Flowjo 10 (Becton, Dickinson & Company) to measure the geometric median fluorescence intensity (gMFI) of the on-cell binding from each antibody. The gMFI values were normalized with the gMFI measured in the sample stained with only the secondary detection antibody and plotted against the concentration of the added antibodies. The binding curves were constructed using Graphpad Prism software, and EC₅₀ values were determined by non-linear curve fitting.

[4] = target: T3, cynomolgus macaque CD8 on expanded …; test: as above; remark: listed apart in the source
Experimental: as §1

[5] = target: T2, human CD8 on cells (CD8-overexpressing …); test: flow cytometry, Human Expanded T cells Donor 5, gated on live CD8 T cells (via CD3+CD4-)
Experimental: as §1

[6] = target: T3, cynomolgus macaque CD8 on expanded …; test: flow cytometry, Cyno Expanded T cells Donor 9, gated on CD4- T cells, anti-human Fc BV421
Experimental: (§2) Binding was measured by fluorescence from the BV421 fluorophore-conjugated anti-human Fc secondary antibody that recognize the binders. The gMFI was normalized to the gMFI of the secondary antibody in the absence of the anti-CD8α binders.
as §1, with “Cells were stained with each diluted antibody solution for 30 minutes on ice.” left out

[7] = target: T4, rhesus macaque CD8 on expanded primary T cells (rhesus macaque); test: flow cytometry, Rhesus Expanded T cells Donor 9, gated on live CD8 T cells (via CD3+CD4-)
T4 construct: also called CD4- CD8+ rhesus T cells
Experimental: as §1

[8] = target: T2, human CD8 on cells (CD8-overexpressing …); test: flow cytometry, Human Expanded T cells Donor 6, gated on CD4- T cells, anti-human Fc BV421
Experimental: as §2
as §1, with “Cells were stained with each diluted antibody solution for 30 minutes on ice.” left out

Binder	Kd [1] [nM]	EC50 [2] [nM]	EC50 [3] [µg/mL]	EC50 [4] [nM]	EC50 [5] [nM]	EC50 (read off the curve) [6] [µg/mL]	EC50 [7] [nM]	EC50 (read off the curve) [8] [µg/mL]
B1	1.45	2.78	0.169	1.16	0.644	~0.2	0.993	~0.1
B2	0.36	2.75	0.057	0.39	0.349	~0.06	0.308	~0.05
